# Test results reported in patent US20220380407A1 (WASHINGTON UNIVERSITY, published 2022).
# Like-named read-outs stand apart in the source and are kept apart here. Positions of bridges follow the written chain, without caps; N, C: chain ends. Non-standard residues stand in square brackets, D forms with d. Primed or numbered codes have the meaning given here. No end group written: not given here. *: point of attachment. X10 = 1‑((2,4-dinitrophenyl)sulfonyl)piperidin‑4‑yl carbamate, O=C(OC1CCN(S(=O)(=O)c2ccc([N+](=O)[O-])cc2[N+](=O)[O-])CC1)*; X9 = 1‑((5-chloro-2-methoxyphenyl)sulfonyl)piperidin‑4‑yl carbamate, COc1ccc(Cl)cc1S(=O)(=O)N1CCC(OC(=O)*)CC1; X11 = 1‑((3-fluorophenyl)sulfonyl)piperidin‑4‑yl carbamate, O=C(OC1CCN(S(=O)(=O)c2cccc(F)c2)CC1)*; X8 = 1‑((4-chlorophenyl)sulfonyl)piperidin‑4‑yl carbamate, O=C(OC1CCN(S(=O)(=O)c2ccc(Cl)cc2)CC1)*; X13 = 1‑((2-fluorophenyl)sulfonyl)piperidin‑4‑yl carbamate, O=C(OC1CCN(S(=O)(=O)c2ccccc2F)CC1)*; X12 = 1‑(mesitylsulfonyl)piperidin‑4‑yl carbamate, Cc1cc(C)c(S(=O)(=O)N2CCC(OC(=O)*)CC2)c(C)c1; X5 = 1‑acetyl‑4‑phenethylpiperidin‑4‑yl carbamate, CC(=O)N1CCC(CCc2ccccc2)(OC(=O)*)CC1; X4 = 1‑(phenylsulfonyl)piperidin‑4‑yl carbamate, O=C(OC1CCN(S(=O)(=O)c2ccccc2)CC1)*; X3 = 4‑benzylpiperidin‑4‑yl carbamate, O=C(OC1(Cc2ccccc2)CCNCC1)*; X1 = 4‑phenylpiperidin‑4‑yl carbamate, O=C(OC1(c2ccccc2)CCNCC1)*; X7 = 1‑acetylpiperidin‑4‑yl carbamate, CC(=O)N1CCC(OC(=O)*)CC1; kbt″ = ketobenzothiazole (C-terminal Arg), c1ccc2sc(*)nc2c1; kbt = C-terminal Arg ketobenzothiazole; Fmoc = O=C(OCC1c2ccccc2-c2ccccc21)*; kt = C-terminal Arg ketothiazole; Cha = N[C@@H](CC1CCCCC1)C(=O)O
# T1: recombinant N-terminal His-tag HGFA serine protease domain (UniProt Q04756 373-655)
# T1 sequence (looked up): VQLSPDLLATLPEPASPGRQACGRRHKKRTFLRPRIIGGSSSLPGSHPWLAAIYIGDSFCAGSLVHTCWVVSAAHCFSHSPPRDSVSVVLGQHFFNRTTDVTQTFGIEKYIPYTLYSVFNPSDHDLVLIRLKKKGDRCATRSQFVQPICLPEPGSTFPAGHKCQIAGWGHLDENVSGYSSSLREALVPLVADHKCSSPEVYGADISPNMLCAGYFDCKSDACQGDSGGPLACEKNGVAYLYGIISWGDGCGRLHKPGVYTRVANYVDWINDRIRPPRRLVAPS
# T2: matriptase (#3946-SE-010, R&D Systems) (UniProt Q9Y5Y6 615-855)
# T2 sequence (looked up): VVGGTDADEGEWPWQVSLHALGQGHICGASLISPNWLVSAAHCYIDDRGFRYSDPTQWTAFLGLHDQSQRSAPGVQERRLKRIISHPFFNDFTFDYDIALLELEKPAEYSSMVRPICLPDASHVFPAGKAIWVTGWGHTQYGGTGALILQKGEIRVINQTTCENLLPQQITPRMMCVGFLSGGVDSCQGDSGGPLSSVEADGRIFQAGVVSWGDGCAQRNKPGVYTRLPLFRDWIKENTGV
# T3: KLK5 (#1108-SE-010, R&D Systems) (UniProt Q9Y337 23-293, limits assumed)
# T3 sequence (looked up): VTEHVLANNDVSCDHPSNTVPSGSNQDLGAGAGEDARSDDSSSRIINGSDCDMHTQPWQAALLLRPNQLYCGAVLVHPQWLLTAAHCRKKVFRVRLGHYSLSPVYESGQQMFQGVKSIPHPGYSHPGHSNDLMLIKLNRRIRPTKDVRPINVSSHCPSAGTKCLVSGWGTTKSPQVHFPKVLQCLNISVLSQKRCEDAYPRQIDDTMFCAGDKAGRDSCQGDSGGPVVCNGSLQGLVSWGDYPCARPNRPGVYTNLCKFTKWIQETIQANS
# Experiments:
# Assay in all cases: cell-based or functional assay
# [1] = biological target: T4, activated hepsin (#4776-SE-010, R&D Systems) (UniProt P05981 45-417, limits assumed)
# T4 sequence (P05981 45-417 limits assumed): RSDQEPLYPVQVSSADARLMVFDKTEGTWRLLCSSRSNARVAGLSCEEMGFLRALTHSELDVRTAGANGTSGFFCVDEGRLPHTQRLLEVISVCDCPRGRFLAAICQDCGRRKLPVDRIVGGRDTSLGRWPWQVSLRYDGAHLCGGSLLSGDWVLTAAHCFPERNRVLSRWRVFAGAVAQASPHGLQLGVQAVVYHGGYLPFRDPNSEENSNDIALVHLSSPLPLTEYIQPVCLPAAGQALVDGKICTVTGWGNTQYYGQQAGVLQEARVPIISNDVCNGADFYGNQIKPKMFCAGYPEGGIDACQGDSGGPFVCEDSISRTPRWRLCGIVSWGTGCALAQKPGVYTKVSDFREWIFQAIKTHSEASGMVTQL
# human TMPRSS2 = human TMPRSS2 (human, UniProt O15393 1-492)
# Sequence of human TMPRSS2 (O15393 whole entry): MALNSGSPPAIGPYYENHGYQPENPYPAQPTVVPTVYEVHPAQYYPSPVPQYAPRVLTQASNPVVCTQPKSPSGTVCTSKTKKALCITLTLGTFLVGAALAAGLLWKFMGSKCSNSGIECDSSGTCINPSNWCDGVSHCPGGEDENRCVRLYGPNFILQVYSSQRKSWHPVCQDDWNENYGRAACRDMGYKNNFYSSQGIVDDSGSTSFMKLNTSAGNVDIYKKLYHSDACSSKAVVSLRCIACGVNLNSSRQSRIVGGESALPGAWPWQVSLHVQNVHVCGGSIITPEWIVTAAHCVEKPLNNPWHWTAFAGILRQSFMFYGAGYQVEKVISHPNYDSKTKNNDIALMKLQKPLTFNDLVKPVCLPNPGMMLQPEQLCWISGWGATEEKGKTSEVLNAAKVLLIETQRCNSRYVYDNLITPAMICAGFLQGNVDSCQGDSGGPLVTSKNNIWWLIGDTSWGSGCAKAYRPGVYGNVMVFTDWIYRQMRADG
# [2] = biological target: T1, recombinant N-terminal His-tag HGFA …
# [3] = biological target: T2, matriptase (#3946-SE-010, R&D Systems)
# [4] = biological target: T4, activated hepsin (#4776-SE-010, R&D …); remark: listed apart in the source
# [5] = biological target: T5, recombinant thrombin (#1473-SE-010, R&D Systems) (UniProt P00734 44-622)
# [6] = biological target: T1, recombinant N-terminal His-tag HGFA …; remark: listed apart in the source
# [7] = biological target: T2, matriptase (#3946-SE-010, R&D Systems); remark: listed apart in the source
# [8] = biological target: T6, Factor Xa (#1063-SE-010, R&D Systems) (UniProt P00742 41-488, limits assumed)
# T6 sequence (P00742 41-488 limits assumed): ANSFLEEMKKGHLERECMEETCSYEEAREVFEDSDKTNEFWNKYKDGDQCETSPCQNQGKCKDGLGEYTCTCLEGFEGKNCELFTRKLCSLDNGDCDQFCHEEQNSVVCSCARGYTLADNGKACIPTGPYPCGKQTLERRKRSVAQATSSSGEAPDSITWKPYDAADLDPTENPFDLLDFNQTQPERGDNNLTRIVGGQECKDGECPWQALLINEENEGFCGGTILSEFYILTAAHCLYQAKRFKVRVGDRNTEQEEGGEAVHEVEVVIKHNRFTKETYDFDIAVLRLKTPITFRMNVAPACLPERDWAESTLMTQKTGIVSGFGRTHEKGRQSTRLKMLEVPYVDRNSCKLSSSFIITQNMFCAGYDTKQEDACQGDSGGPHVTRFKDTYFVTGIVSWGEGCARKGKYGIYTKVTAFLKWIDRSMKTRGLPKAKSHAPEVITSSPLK
# [9] = biological target: T4, activated hepsin (#4776-SE-010, R&D …); remark: listed apart in the source
# [10] = biological target: T5, recombinant thrombin (#1473-SE-010, R&D …); remark: listed apart in the source
# [11] = biological target: T1, recombinant N-terminal His-tag HGFA …; remark: listed apart in the source
# [12] = biological target: T2, matriptase (#3946-SE-010, R&D Systems); remark: listed apart in the source
# [13] = biological target: T6, Factor Xa (#1063-SE-010, R&D Systems); remark: listed apart in the source
# [14] = biological target: T3, KLK5 (#1108-SE-010, R&D Systems)
binder,measurement,setting,value
"Ac-DQKR-kbt (lactam 1-3; also: N-terminal acetyl described as 6-acetamido) [Cyclo(DQK)R-kbt, VD3152]",Hepsin IC50,[1],22 nM
same,Calu-3 EC50,human TMPRSS2,138 nM
same,HGFA IC50,[2],16100 nM
same,Matriptase IC50,[3],7.7 nM
same,Hepsin (IC50 nM),[4],22.2 nM
same,Thrombin* (IC50 nM),[5],> 20000 nM
same,HGFA (IC50 nM),[6],16100 nM
same,Matriptase (IC50 nM),[7],7.7 nM
same,Factor Xa* (IC50 nM),[8],> 20000 nM
X1-[Cha]-Arg-{kbt″} [4-phenylpiperidin-4-yl Cha-Arg-kbt carbamate (8d)],Hepsin IC50,[9],0.09 µM
same,Thrombin IC50,[10],> 20 µM
same,HGFA IC50,[11],> 20 µM
same,Matriptase IC50,[12],2.1 µM
same,Factor Xa IC50,[13],9 µM
X3-Leu-Arg-kbt [4-benzylpiperidin-4-yl Leu-Arg-kbt carbamate (8b)],Hepsin IC50,[9],0.0006 µM
same,Thrombin IC50,[10],> 20 µM
same,HGFA IC50,[11],1.2 µM
same,Matriptase IC50,[12],0.03 µM
same,Factor Xa IC50,[13],6.5 µM
X12-Leu-Arg-kbt [1-(mesitylsulfonyl)piperidin-4-yl Leu-Arg-kbt carbamate (8m)],Hepsin IC50,[9],0.11 µM
same,HGFA IC50,[11],8.8 µM
same,Matriptase IC50,[12],> 20 µM
"Ac-WLFR-kbt [Ac-WLFR-kbt, ZFH7064]",Hepsin IC50,[1],0.79 nM
same,Calu-3 EC50,human TMPRSS2,150 nM
same,HGFA IC50,[2],266 nM
same,Matriptase IC50,[3],12 nM
X1-Leu-Arg-kbt,Hepsin IC50,[9],0.005 µM
same,Thrombin IC50,[10],> 20 µM
same,HGFA IC50,[11],0.78 µM
same,Matriptase IC50,[12],0.09 µM
"Ac-Leu-Leu-Arg-kt [Ac-LLR-kt, ZFH6201]",Hepsin IC50,[1],4.6 nM
same,Calu-3 EC50,human TMPRSS2,349 nM
same,HGFA IC50,[2],506 nM
same,Matriptase IC50,[3],56 nM
X11-Leu-Arg-kbt [1-((3-fluorophenyl)sulfonyl)piperidin-4-yl Leu-Arg-kbt carbamate (8j)],Hepsin IC50,[9],0.07 µM
same,HGFA IC50,[11],> 20 µM
same,Matriptase IC50,[12],7.5 µM
Ac-GQFR-kbt [MM3122 Ac-GQFR-kbt],Hepsin (IC50 nM),[4],0.194 nM
same,Thrombin* (IC50 nM),[5],> 20 nM
same,HGFA (IC50 nM),[6],32.5 nM
same,Matriptase (IC50 nM),[7],0.314 nM
same,Factor Xa* (IC50 nM),[8],700 nM
Ac-Gln-Phe-Arg-kbt [MM3144 Ac-QFR-kbt],Thrombin* (IC50 nM),[5],> 20 nM
same,HGFA (IC50 nM),[6],13.8 nM
same,Factor Xa* (IC50 nM),[8],1.4 nM
Ac-LQFR-kbt [MM3131 Ac-LQFR-kbt],Hepsin (IC50 nM),[4],0.247 nM
same,Thrombin* (IC50 nM),[5],> 20 nM
same,HGFA (IC50 nM),[6],98.2 nM
same,Matriptase (IC50 nM),[7],1.8 nM
same,Factor Xa* (IC50 nM),[8],219 nM
"Ac-[dW]-Phe-Arg-kbt [Ac-dWFR-kbt, PK-1-89A1]",Hepsin IC50,[1],100 nM
same,Calu-3 EC50,human TMPRSS2,32 nM
same,HGFA IC50,[2],346 nM
same,Matriptase IC50,[3],29 nM
X4-Leu-Arg-kbt [1-(phenylsulfonyl)piperidin-4-yl Leu-Arg-kbt carbamate (8f)],Hepsin IC50,[9],0.02 µM
same,Thrombin IC50,[10],> 20 µM
same,HGFA IC50,[11],8.6 µM
same,Matriptase IC50,[12],0.81 µM
same,Factor Xa IC50,[13],> 20 µM
Ac-IQFR-kbt [MM3116 Ac-IQFR-kbt],Hepsin (IC50 nM),[4],0.14 nM
same,Thrombin* (IC50 nM),[5],> 20 nM
same,HGFA (IC50 nM),[6],30.2 nM
same,Matriptase (IC50 nM),[7],0.923 nM
same,Factor Xa* (IC50 nM),[8],792 nM
X7-Leu-Arg-kbt [1-acetylpiperidin-4-yl Leu-Arg-kbt carbamate (8e)],Hepsin IC50,[9],0.02 µM
same,HGFA IC50,[11],> 20 µM
same,Matriptase IC50,[12],0.64 µM
Ac-PQFR-kbt [MM3123 Ac-PQFR-kbt],Hepsin (IC50 nM),[4],0.136 nM
same,Thrombin* (IC50 nM),[5],> 20 nM
same,HGFA (IC50 nM),[6],75 nM
same,Matriptase (IC50 nM),[7],0.316 nM
same,Factor Xa* (IC50 nM),[8],199 nM
Leu-Leu-Arg-{kbt-Val-NH2} (also: N-terminal cap inconsistent in filing (H or Ac)) [H-LLR-kbt V-amide ZFH7182],Hepsin IC50,[1],0.01 nM
same,Calu-3 EC50,human TMPRSS2,2060 nM
same,HGFA IC50,[2],44 nM
X13-Leu-Arg-kbt [1-((2-fluorophenyl)sulfonyl)piperidin-4-yl Leu-Arg-kbt carbamate (8g)],Hepsin IC50,[9],0.07 µM
same,HGFA IC50,[11],18 µM
same,Matriptase IC50,[12],4.5 µM
{2‑phenyl‑1‑(piperidin-4-yl)ethyl carbamate}-Leu-Arg-kbt [2-phenyl-1-(piperidin-4-yl)ethyl Leu-Arg-kbt carbamate (11b)],Hepsin IC50,[9],0.002 µM
same,HGFA IC50,[11],6 µM
same,Matriptase IC50,[12],0.02 µM
"Ac-SKLR-kbt [Ac-SKLR kbt, ZFH7053]",KLK5 IC50,[14],2.12 µM
Ac-MQFR-kbt [MM3130 Ac-MQFR-kbt],Hepsin (IC50 nM),[4],0.135 nM
same,Thrombin* (IC50 nM),[5],> 20 nM
same,HGFA (IC50 nM),[6],36.5 nM
same,Matriptase (IC50 nM),[7],0.552 nM
same,Factor Xa* (IC50 nM),[8],342 nM
"X10-Leu-Arg-kbt [1-((2,4-dinitrophenyl)sulfonyl)piperidin-4-yl Leu-Arg-kbt carbamate (8k)]",Hepsin IC50,[9],0.11 µM
same,HGFA IC50,[11],> 20 µM
same,Matriptase IC50,[12],10 µM
"Ac-SQLR-kt [Ac-SQLR-kt, ZFH6138]",KLK5 IC50,[14],3.94 µM
X5-Leu-Arg-kbt [1-acetyl-4-phenethylpiperidin-4-yl Leu-Arg-kbt carbamate (8c)],Hepsin IC50,[9],0.0005 µM
same,Thrombin IC50,[10],7.7 µM
same,HGFA IC50,[11],> 20 µM
same,Matriptase IC50,[12],0.07 µM
same,Factor Xa IC50,[13],2 µM
"Ac-KQLR-kbt [Ac-KQLR-kbt, ZFH7006]",KLK5 IC50,[14],1.79 µM
same,Hepsin IC50,[1],0.17 nM
same,Calu-3 EC50,human TMPRSS2,78 nM
same,HGFA IC50,[2],60 nM
same,Matriptase IC50,[3],1.1 nM
Fmoc-Trp-Arg-kbt [FmocWRkbt],KLK5 IC50,[14],4.39 µM
X9-Leu-Arg-kbt [1-((5-chloro-2-methoxyphenyl)sulfonyl)piperidin-4-yl Leu-Arg-kbt carbamate (8l)],Hepsin IC50,[9],0.06 µM
same,HGFA IC50,[11],6.3 µM
same,Matriptase IC50,[12],4 µM
Fmoc-Pro-Arg-kbt [FmocPRkbt],KLK5 IC50,[14],3.68 µM
"Ac-DMKR-kbt (lactam 1-3; not fully specified; printed as Cyclo(DMK)R-kbt; also: N-terminal acetyl described as 6-acetamido) [Cyclo(DMK)R-kbt, VD3173]",Hepsin IC50,[1],5.9 nM
same,Calu-3 EC50,human TMPRSS2,119 nM
same,HGFA IC50,[2],3240 nM
same,Matriptase IC50,[3],1 nM
same,Hepsin (IC50 nM),[4],5.9 nM
same,Thrombin* (IC50 nM),[5],> 20000 nM
same,HGFA (IC50 nM),[6],3240 nM
same,Matriptase (IC50 nM),[7],0.98 nM
same,Factor Xa* (IC50 nM),[8],1400 nM
X8-Leu-Arg-kbt [1-((4-chlorophenyl)sulfonyl)piperidin-4-yl Leu-Arg-kbt carbamate (8i)],Hepsin IC50,[9],0.06 µM
same,HGFA IC50,[11],9 µM
same,Matriptase IC50,[12],2.4 µM
"Ac-Trp-Phe-Arg-kbt [Ac-WFR-kbt, PK-1-102A1]",KLK5 IC50,[14],> 20 µM
